In paper PMC7973133, “Escherichia coli FabG 3-ketoacyl-ACP reductase proteins lacking the assigned catalytic triad residues are active enzymes” (The Journal of Biological Chemistry, 2021):
Where a chain is given by its changes, count along the chain named. Names and notes keep the numbering of the source. One block for each molecule: values may come before it.

Tests used:
[1] = target: T1, E. coli FabG (3-ketoacyl-ACP reductase) (Escherichia coli, UniProt P0AEK2); assay: fluorescence titration; format: binding
T1 construct: homotetramer
T1 sequence (P0AEK2 1-244): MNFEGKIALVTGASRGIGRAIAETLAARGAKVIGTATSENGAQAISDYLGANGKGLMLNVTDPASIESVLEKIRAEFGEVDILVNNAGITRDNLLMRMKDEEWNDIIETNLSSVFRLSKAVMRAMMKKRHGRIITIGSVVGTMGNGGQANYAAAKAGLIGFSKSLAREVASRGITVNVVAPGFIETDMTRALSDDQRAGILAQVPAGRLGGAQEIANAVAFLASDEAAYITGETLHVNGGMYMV
Source text: (§1) fluorescence titration on E. coli FabG (3-ketoacyl-ACP reductase) | wildtype FabG and mutant proteins S138A and Y151F could bind NADPH with Kd values

[2] = target: T2, E. coli FabG (3-ketoacyl-ACP reductase) (Escherichia coli, UniProt P0AEK2, S138A); assay: fluorescence titration; format: binding
T2 construct: homotetramer
Source text: as §1

[3] = target: T3, E. coli FabG (3-ketoacyl-ACP reductase) (Escherichia coli, UniProt P0AEK2, Y151F); assay: fluorescence titration; format: binding
T3 construct: homotetramer
Source text: as §1

purified protein = substrate: NC(=O)C1=CN([C@@H]2O[C@H](COP(=O)(O)OP(=O)(O)OC[C@H]3O[C@@H](n4cnc5c(N)ncnc54)[C@H](OP(=O)(O)O)[C@@H]3O)[C@@H](O)[C@H]2O)C=CC1; assay: purified protein; format: biochemical, Escherichia coli; details: acetoacetyl-ACP generated in situ (100 μM ACP, 500 μM malonyl-CoA, 500 μM acetyl-CoA, FabD, FabH), 0.1 M sodium phosphate pH 7.0, varied: cofactor

Kd [1]: 13.2 µM
Kd [2]: 13.9 µM
Kd [3]: 15.8 µM
Molecule: NC(=O)C1=CN([C@@H]2O[C@H](COP(=O)(O)OP(=O)(O)OC[C@H]3O[C@@H](n4cnc5c(N)ncnc54)[C@H](OP(=O)(O)O)[C@@H]3O)[C@@H](O)[C@H]2O)C=CC1 [NADPH]

B1: E. coli FabG (3-ketoacyl-ACP reductase) (Escherichia coli K-12) (protein)
chain: T1 sequence (P0AEK2 1-244)
notes: homotetramer
Km (purified protein): 99.22 µM

B2: E. coli FabG (3-ketoacyl-ACP reductase) (Escherichia coli K-12; K155A) (protein)
chain: T1 sequence (P0AEK2 1-244) with K155A
notes: homotetramer
Km (purified protein): 166.45 µM

B3: E. coli FabG (3-ketoacyl-ACP reductase) (Escherichia coli K-12; Y151F) (protein)
chain: T1 sequence (P0AEK2 1-244) with Y151F
notes: homotetramer
Km (purified protein): 147.72 µM

B4: E. coli FabG (3-ketoacyl-ACP reductase) (Escherichia coli K-12; S138A) (protein)
chain: T1 sequence (P0AEK2 1-244) with S138A
notes: homotetramer
Km (purified protein): 101.47 µM
